Measured values published in the supplement of paper PMC10724198.
± gives the standard deviation of the averaged measurements.

Key:
Saccharomyces cerevisiae [1] = assay: protein stability index of tFT-peptide fusion (C-terminal peptide) (PSI (0-1 scale)); higher = more stable (slower turnover)
Description: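 MPS profiling in S. cerevisiae of the tFT-X12 degron library: putative degron peptides plus stable controls, 12 aa, fused to the C-terminus of a sfGFP-mCherry timer. Cells are FACS-sorted into 8 mCherry/sfGFP bins and deep-sequenced. PSI runs from 0 (unstable) to 1 (stable). Backgrounds are wild type, das1Δ and doa10Δ at 30 °C, and wild type, das1Δ, cdc34-1 and cdc53-1 at 37 °C; 2-3 technical replicates each.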

Saccharomyces cerevisiae [2] = assay: as above; settings: genetic background: wild type; temperature: 30 C
[3] = genetic background: cdc34-1, temperature: 37 C
[4] = genetic background: cdc53-1, temperature: 37 C
[5] = genetic background: das1 deletion, temperature: 30 C
[6] = genetic background: das1 deletion, temperature: 37 C
[7] = genetic background: doa10 deletion, temperature: 30 C
[8] = genetic background: wild type, temperature: 30 C
[9] = genetic background: wild type, temperature: 37 C
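Further: PSI is a weighted mean of sequencing reads over stability bins, variants kept only with over 10 reads, mCherry proximal and sfGFP distal, peptide attached via GGGS linker.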

Sequence	protein stability index (Saccharomyces cerevisiae [1]; [3])	protein stability index (Saccharomyces cerevisiae [1]; [4])	protein stability index (Saccharomyces cerevisiae [1]; [5])	protein stability index (Saccharomyces cerevisiae [1]; [6])	protein stability index (Saccharomyces cerevisiae [1]; [7])	protein stability index (Saccharomyces cerevisiae [1]; [8])	protein stability index (Saccharomyces cerevisiae [1]; [9])	protein stability index (Saccharomyces cerevisiae [2])
SLVLLLLITFSL	0.431 ± 0.023	0.507 ± 0.015	0.376 ± 0.025	0.527 ± 0.014	0.377 ± 0.016	0.373 ± 0.02	0.495 ± 0.021	0.491 ± 0.017
SNFFPVPLLLFR	0.211 ± 0.0084	0.117 ± 0.024	0.309 ± 0.016	0.383 ± 0.0094	0.647 ± 0.024	0.297 ± 0.019	0.327 ± 0.031	0.383 ± 0.088
SPCFLDPPRLIS	0.663 ± 0.031	0.728 ± 0.025	0.681 ± 0.022	0.7568 ± 0.0044	0.287 ± 0.018	0.328 ± 0.032	0.536 ± 0.02	0.388 ± 0.025
SPLHGFLFLVLL	0.395 ± 0.03	0.445 ± 0.0069	0.403 ± 0.025	0.523 ± 0.012	0.528 ± 0.024	0.403 ± 0.028	0.496 ± 0.021	0.424 ± 0.021
SPLLPPPLLFLS	0.596 ± 0.056	0.7307 ± 0.0032	0.6555 ± 0.0025	0.729 ± 0.009	0.1475 ± 0.0013	0.168 ± 0.033	0.241 ± 0.033	0.211 ± 0.0097
SRDSLLTLIPSC	0.646 ± 0.058	0.733 ± 0.0095	0.6189 ± 0.002	0.7393 ± 0.0043	0.622 ± 0.017	0.636 ± 0.013	0.697 ± 0.0081	0.692 ± 0.037
SRLVIGRWSVLV	0.567 ± 0.045	0.617 ± 0.016	0.492 ± 0.03	0.6346 ± 0.0035	0.177 ± 0.013	0.217 ± 0.034	0.442 ± 0.0031	0.318 ± 0.019
SRPEPNGLRKLV	0.587 ± 0.009	0.727 ± 0.015	0.605 ± 0.029	0.751 ± 0.018	0.139 ± 0.024	0.172 ± 0.024	0.315 ± 0.052	0.293 ± 0.069
SSAPTIVIWRFS	0.672 ± 0.041	0.724 ± 0.026	0.592 ± 0.031	0.7 ± 0.0079	0.401 ± 0.024	0.428 ± 0.011	0.6081 ± 0.0015	0.495 ± 0.027
SSGSLLLPRFLT	0.658 ± 0.038	0.7301 ± 0.0046	0.672 ± 0.023	0.734 ± 0.019	0.222 ± 0.019	0.243 ± 0.038	0.54 ± 0.037	0.387 ± 0.03
SSLLPLLAQLVG	0.594 ± 0.046	0.7484 ± 0.0013	0.581 ± 0.05	0.68255 ± 0.00041	0.252 ± 0.014	0.265 ± 0.039	0.411 ± 0.01	0.406 ± 0.05
SSMSAVFRLQVC	0.567 ± 0.0096	0.657 ± 0.0093	0.613 ± 0.017	0.662 ± 0.0092	0.228 ± 0.001	0.232 ± 0.015	0.299 ± 0.049	0.276 ± 0.017
SSRPLSPQSLRL	0.637 ± 0.2	0.709 ± 0.043	0.601 ± 0.051	0.71 ± 0.0077	0.60715 ± 0.00031	0.605 ± 0.067	0.658 ± 0.032	0.553 ± 0.17
SSVCLYWCCLFV	0.522 ± 0.036	0.602 ± 0.013	0.443 ± 0.041	0.535 ± 0.016	0.407 ± 0.0018	0.426 ± 0.027	0.5166 ± 0.00058	0.432 ± 0.011
SSVCYFGLLFIV	0.452 ± 0.038	0.561 ± 0.015	0.44 ± 0.026	0.623 ± 0.034	0.103 ± 0.0046	0.103 ± 0.022	0.139 ± 0.022	0.184 ± 0.0042
SVFRFLFLALLV	0.2 ± 0.052	0.162 ± 0.018	0.282 ± 0.029	0.352 ± 0.023	0.173 ± 0.0056	0.145 ± 0.0078	0.18 ± 0.016	0.191 ± 0.016
SVFVFFGFIDFL	0.52 ± 0.015	0.589 ± 0.12	0.404 ± 0.036	0.6007 ± 0.0035	0.369 ± 0.015	0.412 ± 0.036	0.581 ± 0.0099	0.469 ± 0.011
SVLASFFSAFVC	0.459 ± 0.0087	0.6975 ± 0.0014	0.598 ± 0.011	0.7258 ± 0.0054	0.118 ± 0.015	0.118 ± 0.023	0.149 ± 0.0027	0.195 ± 0.01
SVLLVFRFFWEL	0.417 ± 0.012	0.461 ± 0.018	0.397 ± 0.026	0.5056 ± 0.0022	0.295 ± 0.018	0.292 ± 0.029	0.445 ± 0.0082	0.405 ± 0.098
SVLVWVFGLFVI	0.411 ± 0.012	0.525 ± 0.013	0.431 ± 0.024	0.56 ± 0.012	0.42 ± 0.028	0.392 ± 0.028	0.495 ± 0.015	0.446 ± 0.012

Sequence	protein stability index (Saccharomyces cerevisiae [1]; [3])	protein stability index (Saccharomyces cerevisiae [1]; [4])	protein stability index (Saccharomyces cerevisiae [1]; [5])	protein stability index (Saccharomyces cerevisiae [1]; [6])	protein stability index (Saccharomyces cerevisiae [1]; [7])	protein stability index (Saccharomyces cerevisiae [1]; [8])	protein stability index (Saccharomyces cerevisiae [1]; [9])	protein stability index (Saccharomyces cerevisiae [2])
SVMTFVFFISAF	0.257 ± 0.013	0.397 ± 0.021	0.243 ± 0.039	0.438 ± 0.021	0.212 ± 0.0043	0.238 ± 0.037	0.396 ± 0.0055	0.344 ± 0.1
SWRRCLSSIPVA	0.383 ± 0.0085	0.416 ± 0.012	0.319 ± 0.026	0.457 ± 0.0086	0.276 ± 0.0056	0.303 ± 0.035	0.438 ± 0.012	0.425 ± 0.013
SWVVLVSFLSWR	0.2561 ± 0.0015	0.3502 ± 0.0028	0.245 ± 0.031	0.4285 ± 0.003	0.233 ± 0.0082	0.232 ± 0.032	0.424 ± 0.031	0.357 ± 0.0065
SWWGDVVWFVVC	0.555 ± 0.059	0.649 ± 0.015	0.501 ± 0.015	0.7029 ± 0.0032	0.176 ± 0.018	0.199 ± 0.03	0.381 ± 0.0062	0.282 ± 0.03
SYGNGIPIRMLH	0.656 ± 0.035	0.707 ± 0.026	0.641 ± 0.013	0.728 ± 0.013	0.204 ± 0.013	0.217 ± 0.013	0.422 ± 0.05	0.329 ± 0.014
SYLPSHVYIFLL	0.275 ± 0.0049	0.309 ± 0.02	0.273 ± 0.032	0.4417 ± 0.0022	0.097 ± 0.0087	0.0758 ± 0.019	0.129 ± 0.034	0.128 ± 0.019
TFLCSSLALAVI	0.455 ± 0.03	0.509 ± 0.032	0.338 ± 0.022	0.4985 ± 0.0021	0.317 ± 0.023	0.334 ± 0.014	0.4789 ± 0.00054	0.405 ± 0.042
TGYRYVGRFFVV	0.653 ± 0.037	0.723 ± 0.039	0.588 ± 0.016	0.691 ± 0.016	0.155 ± 0.0032	0.163 ± 0.02	0.329 ± 0.011	0.248 ± 0.01
TLCFRLSWVLLV	0.0812 ± 0.028	0.15 ± 0.013	0.144 ± 0.02	0.22 ± 0.014	0.0335 ± 0.006	0.0265 ± 0.0028	0.0672 ± 0.022	0.0528 ± 0.037
TLNKDILIIKCA	0.382 ± 0.023	0.42 ± 0.036	0.286 ± 0.035	0.45 ± 0.013	0.135 ± 0.022	0.175 ± 0.022	0.214 ± 0.049	0.212 ± 0.0051
TNFVVRLRFVLF	0.534 ± 0.021	0.5485 ± 0.00062	0.464 ± 0.016	0.522 ± 0.02	0.29 ± 0.015	0.295 ± 0.0087	0.419 ± 0.011	0.366 ± 0.029
TVRVVMLRLLFT	0.452 ± 0.027	0.52 ± 0.025	0.346 ± 0.035	0.528 ± 0.0076	0.309 ± 0.02	0.33 ± 0.024	0.493 ± 0.018	0.418 ± 0.021
VAFLWVAFCFSG	0.205 ± 0.0023	0.355 ± 0.044	0.224 ± 0.03	0.3883 ± 0.0035	0.178 ± 0.019	0.203 ± 0.016	0.366 ± 0.021	0.276 ± 0.046
VAIMSIWLVYML	0.349 ± 0.0086	0.465 ± 0.0057	0.341 ± 0.031	0.497 ± 0.016	0.331 ± 0.0076	0.333 ± 0.0079	0.4919 ± 0.0028	0.454 ± 0.0058
VALAVRVVVCGA	0.0316 ± 0.014	0.0354 ± 0.0067	0.122 ± 0.039	0.106 ± 0.0073	0.0887 ± 0.0097	0.108 ± 0.028	0.0779 ± 0.01	0.142 ± 0.041
VAWCVWCWWWAV	0.188 ± 0.0033	0.322 ± 0.0061	0.209 ± 0.021	0.351 ± 0.0049	0.06 ± 0.016	0.0674 ± 0.015	0.0852 ± 0.013	0.131 ± 0.047
VCLFWLFLWRIL	0.208 ± 0.018	0.167 ± 0.027	0.3 ± 0.027	0.374 ± 0.013	0.217 ± 0.014	0.182 ± 0.0051	0.241 ± 0.016	0.266 ± 0.0063
VCLWVEVLIVLG	0.0839 ± 0.023	0.205 ± 0.056	0.136 ± 0.03	0.25 ± 0.014	0.106 ± 0.031	0.129 ± 0.021	0.183 ± 0.0078	0.209 ± 0.011
VCPWGYCSEWGF	0.772 ± 0.047	0.82244 ± 0.00034	0.697 ± 0.023	0.8015 ± 0.0031	0.692 ± 0.043	0.687 ± 0.014	0.7887 ± 0.006	0.759 ± 0.013
